From patent publication US20250332297A1, “DLL3-SPECIFIC BINDING CONSTRUCTS AND THEIR USE IN RADIOTHERAPY” (MOLECULAR PARTNERS AG, priority 2024, published 2025)

Columns and labels:
[1] = Pharmacokinetic analysis in WT BALBc mice (serum, ELISA); format: in vivo, mouse; settings: natural lead-labelled DOTAM conjugate 1 mg/kg i.v., Tables 16, 17
Source text: The pharmacokinetic (PK) properties of lead-labelled DARPin (MAM160, MAM279, MAM282, MAM283) conjugates were investigated in mice, including to determine the terminal half-life (or serum half-life) of these conjugates.
In brief, DARPins MAM279, MAM283, MAM160 and MAM282 were conjugated to the chelator DOTAM, via a C-terminal Cysteine containing tag and a connector, as described in Example 3. The conjugates were then labelled with natural lead (Pb). The protein components of the conjugates corresponded to SEQ ID NOs: 15 to 18, respectively. These lead-labelled DARPin conjugates were injected i.v. at 1 mg/kg into WT BALBc mice. Serum was collected 2 min, 10 min, 30 min, 1 h, 4 h, 24 h, 48 h, and 72 h post-injection. DARPins were detected and measured by ELISA. The data were expressed as the DARPin concentration in serum (nmol/L).
In brief, lead-labelled MAM279 conjugate, as described in Example 13, was injected i. at 0.1 mg/kg or at 1 mg/kg into the tail vein of WT BALBc mice. Serum was collected 2 min, 10 min, 30 min, 1 h, 4 h, 24 h, 48 h, and 72 h post-injection for MAM279 conjugate injected at 1 mg/kg, and 2 min, 30 min, 4 h, 24 h, 30 h, 48 h, 72 h, 96 h, and 168 h post-injection for MAM279 conjugate injected at 0.1 mg/kg. DARPins were detected and measured by ELISA. The data were expressed as the DARPin concentration in serum (nmol/L).
In brief, natural lead-labelled MAM279 conjugate, as described in Example 13, was injected i.v. at different doses (0.001 mg/kg, 0.01 mg/kg, 0.1 mg/kg, or 1 mg/kg) into the tail vein of WT BALBc mice. Similarly, unconjugated Rova was injected iv. at 1 mg/kg into the tail vein of WT BALBc mice. Serum was collected 2 min, 10 min, 30 min, 1 h, 4 h, 24 h, 48 h, and 72 h post-injection for MAM279 conjugate injected at 1 mg/kg, and 2 min, 30 min, 4 h, 24 h, 30 h, 48 h, 72 h, 96 h, and 168 h post-injection for MAM279 conjugate injected at 0.1 mg/kg, 0.01 mg/kg and 0.001 mg/kg. Serum was collected 2 min, 30 min, 4 h, 24 h, 30 h, 48 h, 72 h, 96 h, and 168 h post-injection for Rova antibody injected at 1 mg/kg. DARPins and Rova were detected and measured by ELISA. Rova PK characteristics were calculated with time points between 4 h and 168 h and MAM279 conjugate PK characteristics were calculated with time points between 4 h and 72 h. The data were expressed as the DARPin or Rova concentration in serum (nmol/L). Results are shown in FIGS. 19A and 19B and Table 22.

[2] = target: T1, human DLL3 expressed on HEK293T-huDLL3 cells (Homo sapiens, UniProt Q9NYJ7); assay: Cell binding titration on HEK293T-hDLL3 cells; format: cell-based; settings: presence of human serum albumin (10 μM in FIG. 9 legend, 10 pM in the source), read-out: Cell binding EC50, with HSA
T1 construct: expressed in transfected cells; host or cells: HEK293T-hDLL3
T1 sequence (Q9NYJ7 27-618): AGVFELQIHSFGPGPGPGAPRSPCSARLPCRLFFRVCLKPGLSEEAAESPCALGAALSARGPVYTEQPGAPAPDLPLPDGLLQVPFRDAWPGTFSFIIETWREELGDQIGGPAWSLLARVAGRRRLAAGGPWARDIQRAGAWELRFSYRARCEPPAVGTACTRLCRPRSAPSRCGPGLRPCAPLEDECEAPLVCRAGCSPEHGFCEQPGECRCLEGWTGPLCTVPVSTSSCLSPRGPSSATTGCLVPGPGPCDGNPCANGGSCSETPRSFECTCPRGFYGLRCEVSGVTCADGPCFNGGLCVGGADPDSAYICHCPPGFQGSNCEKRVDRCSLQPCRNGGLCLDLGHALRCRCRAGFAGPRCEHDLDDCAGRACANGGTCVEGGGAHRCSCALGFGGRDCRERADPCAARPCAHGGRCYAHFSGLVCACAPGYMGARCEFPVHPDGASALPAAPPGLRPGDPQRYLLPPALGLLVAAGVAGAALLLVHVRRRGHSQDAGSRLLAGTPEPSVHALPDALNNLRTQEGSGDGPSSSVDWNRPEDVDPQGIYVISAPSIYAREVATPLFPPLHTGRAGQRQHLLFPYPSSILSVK

B1: MAM160: Two domain (2D) ankyrin repeat protein: serum albumin-specific domain (SEQ ID NO: 7), PT linker, DLL3-specific domain MAM120 (protein)
chain: DLGKKLLEAARAGQDDEVRELLKAGADVNAKDYFSHTPLHLAARNGHLKIVEVLLKAGADVNAKDFAGKTPLHLAADAGHLEIVEVLLKAGADVNAQDIFGKTPADIAADAGHEDIAEVLQKAAGSPTPTPTTPTPTPTTPTPTPTGSDLGTKLLSAAADGQDDEVRELLQAGADVNAKDLFGYTPLHLAAWRGHLEIVEVLLEAGADVNAKDAAGLTPLHLAAWFGHLEIVEVLLEAGADVNAQDVQGVTPADLAAKEGHEDIAEVLQQAA
modifications: Ankyrin repeat protein (MAM160)
With B1 the AUCINF_pred [1] was 4.5873 µM·h, the “AUC_% Back_Ext_pred” value [1] was 1% and the “AUC_% Extrap_pred” value [1] was 0%. The AUClast [1] was 4.5787 µM·h, the CI_pred [1] was 0.123 mL/min/kg and the Cmax [1] was 625 nM. The HL_Lambda_z [1] was 8.3 h, the Tmax [1] was 1.98 min and the Vss_pred [1] was 0.060 L/kg. For the same molecule, the EC50 [2] was 36.6 nM.
